Experimental findings from patent US20260250363A1 are described below.

Holding throughout (settings): remark: other sources report otherwise
Assay [1] concerns the target T1, SARS-CoV-2 AY.1 Spike Protein (R&D, Cat. #10922-CV) (SARS-CoV-2), P0DTC2. The assay is described as follows: direct ELISA on coated spike. On the technique in general: An ELISA detects its analyte on a solid surface through an enzyme-linked reagent.
In assay [2] the target is T2, SARS-CoV-2 Spike Protein, wild type (R&D, Cat. #10549-CV) (SARS-CoV-2), P0DTC2. Briefly: direct ELISA on coated spike.
The target in assay [3] is T3, SARS-CoV-2 C.37 Spike His Protein (R&D, Cat. #10887-CV) (SARS-CoV-2), P0DTC2. Briefly: direct ELISA on coated spike.
The target in assay [4] is T1, SARS-CoV-2 AY.1 Spike Protein (R&D, …). The assay is described as follows: competition ELISA: blocks biotin-ACE2 binding to coated spike.
For assay [5] the target is unchanged. Briefly: BLI (ForteBio), mAb on AHC sensor, spike in solution.
Assay [6] deals with T2, SARS-CoV-2 Spike Protein, wild type …. The description is as above.
Assay [7] addresses T3, SARS-CoV-2 C.37 Spike His Protein (R&D, …). The description is as above.
Assay [8] has as its target T1, SARS-CoV-2 AY.1 Spike Protein (R&D, …). Briefly: competition ELISA: blocks biotin-ACE2 binding to coated spike. The source holds these as a separate data set.
In assay [9] the target is T2, SARS-CoV-2 Spike Protein, wild type …. The assay is described as above.
Assay [10] addresses T3, SARS-CoV-2 C.37 Spike His Protein (R&D, …). The assay is described as above.
The target is the same in assay [11]. Described as above. This is another data set of the same source.
The target in assay [12] is T2, SARS-CoV-2 Spike Protein, wild type …. The description is as above. The source holds these as a separate data set.

B1: Casirivimab (antibody)
chain 1: QVQLVESGGGLVKPGGSLRLSCAASGFTFSDYYMSWIRQAPGKGLEWVSYITYSGSTIYYADSVKGRFTISRDNAKSSLYLQMNSLRAEDTAVYYCARDRGTTMVPFDYWGQGTLVTVSS
chain 2: DIQMTQSPSSLSASVGDRVTITCQASQDITNYLNWYQQKPGKAPKLLIYAASNLETGVPSRFSGSGSGTDFTFTISGLQPEDIATYYCQQYDNLPLTFGGGTKVEIK
For B1, the EC50 (usually the concentration giving half of the maximal effect) was 0.041 nM in assay [1], 0.0557 nM in assay [2] and 0.0507 nM in [3]. The concentration for half-maximal inhibition (IC50) (usually the midpoint of a concentration-inhibition curve) amounted to 0.341 nM in assay [4]; 0.646 nM in [8]; 3.73 nM in assay [9]; 1.9 nM in assay [10]; 1.39 nM in [11]; 2.94 nM in assay [12]. Also, the Kd (usually the free concentration of one partner at which half of the binding sites on the other are occupied at equilibrium, for simple one-to-one binding) in assay [5] is 1.08 nM; in [6], 2.85 nM; in assay [7] it was 0.511 nM.
